Here are results for one substance from patent publication US20250027901A1.

“And” between values parts separate entries of the source, which are not always exact repeats. Identical values can stand only once. Like-named read-outs stand apart in the source and are kept apart here.

Test [1] addresses SARS-CoV-2 S1 (Sino Biological 40591-V08B1) (SARS-CoV-2) (UniProt P0DTC2).
The target in test [2] is snoopTag-msfGFP-3C cleavage site-TwinStrep.
Test [3] deals with lysozyme.
Test [4] addresses SARS-CoV-2 S1 (Sino Biological 40591-V08B1) (SARS-CoV-2) (UniProt P0DTC2). This is another data set of the same source.
Test [5] has as its target SARS-CoV-2 Spike-pseudotyped lentivirus (GeneCopoeia CAT. SP101-100) (SARS-CoV-2) (UniProt P0DTC2).
The target of test [6] is Cysteine terminated spyTag peptide (…). As to the kind of experiment: QCMD, nanobody-SpyCatcher coupling to Cys-SpyTag peptide on gold (SpyDirect).
Test [7] deals with lysozyme. As to the kind of experiment: OECT sensor, SpyDirect SARS-CoV-1 nanobody gates after 7-day storage, lysozyme.
Test [8] addresses SARS-CoV-2 S1 (Sino Biological 40591-V08B1) (SARS-CoV-2) (UniProt P0DTC2). As to the kind of experiment: OECT sensor, SpyDirect SARS-CoV-1 nanobody gate, 1.2 aM spike (FIG. 4C, saliva).

Chain of lysozyme (P00698 19-147): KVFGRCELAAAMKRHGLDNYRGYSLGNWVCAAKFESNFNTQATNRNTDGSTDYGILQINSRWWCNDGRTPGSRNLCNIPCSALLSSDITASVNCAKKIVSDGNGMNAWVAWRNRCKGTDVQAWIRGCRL

Regarding “VHH72-8 aa-spyCatcher-3C cleavage site-His8”, the Density per cm^2 was 5.2e+12 per cm^2 and 2.3e+12 per cm^2 in test [1]; 7.8e+12 per cm^2 in test [6]. Moreover, the gained mass (ng/cm^2) is 290 ng/cm^2 and 659 ng/cm^2 in test [1]; less than 1 ng/cm^2 in test [2]; 376 ng/cm^2 in test [6]. Also, the normalized response (NR) is less than 15% with lysozyme [3]; 20% in test [4]; 28% in test [5]; less than 12% with lysozyme [7]; 20% in test [8].
